Earlier results in publication PMC2723763.

Target: ZPI (Homo sapiens) (UniProt Q9UK55)
Sequence of UniProt Q9UK55 (Q9UK55 22-444): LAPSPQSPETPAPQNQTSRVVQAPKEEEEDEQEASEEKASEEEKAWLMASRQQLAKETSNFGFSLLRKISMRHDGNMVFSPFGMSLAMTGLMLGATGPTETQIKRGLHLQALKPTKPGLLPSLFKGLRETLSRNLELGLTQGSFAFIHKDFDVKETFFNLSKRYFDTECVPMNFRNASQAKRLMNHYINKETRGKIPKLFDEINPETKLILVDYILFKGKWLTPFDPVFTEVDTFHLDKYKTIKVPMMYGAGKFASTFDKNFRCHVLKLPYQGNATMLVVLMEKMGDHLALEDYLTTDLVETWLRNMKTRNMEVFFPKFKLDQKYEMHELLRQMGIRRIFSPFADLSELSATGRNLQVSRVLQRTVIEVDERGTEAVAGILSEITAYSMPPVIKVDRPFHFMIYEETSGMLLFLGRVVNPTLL

- Kd: 7 nM
Substance: protein Z (from UniProt P22891)
